Type in all cases: in vivo, rat
The subject of one experiment is noise exposed adult rats. Kind of experiment: Noise-induced hearing loss/synaptopathy, ABR wave I amplitude (Example A1). The following applies: sustained release formulation, 0.005% BDNF in Poloxamer 407, single unilateral intratympanic administration 24 hrs after noise; compared to vehicle treatment; FIG. 3A. How it is done: Male rats (Charles River) approximately 10-11 months of age served as subjects (N=6 per group). Prior to any procedures, animals were anesthetized using a combination of xylazine (10 mg/kg) and ketamine (90 mg/kg) for up to one hour via the intraperitoneal route. If needed, an intraoperative booster was administered intraperitoneally representing one-tenth of the original dose.
Noise exposure—Anesthetized animals (4 at a time) were placed in an enclosure and exposed to noise. The characteristics of the acoustic trauma were as follows: a single period of 1 h, sound pressure level of 105 dB SPL with a narrow band pass of 8-16 kHz. […]
Auditory Brainstem Response (ABR) assessment (wave 1)—During the procedure, additional anesthetic (xylazine and ketamine) was administered if needed to maintain the depth of anesthesia sufficient to insure immobilization and relaxation. ABRs were recorded in an electrically and acoustically shielded chamber, one ear at a time. […] Acoustic calibration was performed with TDT software (SigCal) and thresholds were expressed as dB SPL in conditions identical to that of threshold recordings in animals. […] Wave 1 was quantified by averaging the wave 1 amplitude from intensities ranging between 60-80 dB SPL.
Animals were exposed to noise on Day 0. […] ABR threshold and ABR wave I amplitude were measured weekly in live animals for up to 4 weeks. […]

In experiment [1] the test system is adult male rats bilaterally exposed to noise. Briefly: Noise-induced cochlear synaptopathy, ABR thresholds and wave I amplitude (Example G). How it is done: (§1) Animals: Male Sprague-Dawley rats (5-6 months of age) were used for efficacy studies and females (2-3 months) were used for pharmacokinetic studies.
Formulations: Human recombinant BDNF was suspended in the thermoreversible polymer Poloxamer 407 (16%) to reach a range of BDNF concentrations.
(§2) Intratympanic (IT) injection: Formulations were administered under anesthesia as a single IT injection (20 μl) through the tympanic membrane into the middle ear, targeting the round window membrane (RWM).
Noise-induced cochlear synaptopathy: Rats (n=44 per treatment group) received a single acoustic trauma (105 dB SPL, 8-16 kHz, 1 h) under anesthesia. 24 hours later (Day 1) animals received a single bilateral IT injection of the treatment regimens. Auditory function (ABR and ABR wave 1 amplitude) was monitored at day 1 and then every 7 days for 28 days. At termination (Day 28), cochleae were collected and assessed for evidence of cochlear synaptopathy (IHC synaptic puncta counts).
(§3) Intratympanic BDNF improves Auditory Brainstem Response (ABR) thresholds and wave I amplitudes in adult rats. The Auditory Brainstem Response (ABR) is an objective test that measures hearing sensitivity and can identify abnormalities in the peripheral auditory system and the auditory pathway up through the brainstem. […]

Experiment [2] shares this test system. Kind of experiment: Noise-induced cochlear synaptopathy, ABR and wave I amplitude at various BDNF concentrations (Example K). The following applies: at all three BDNF concentrations (0.005%, 0.05%, 0.5% BDNF in P407), vs P407 vehicle alone. How it is done: as §1
Formulations: Human recombinant BDNF was suspended in the thermoreversible polymer Poloxamer 407 (16%) to reach a range of BDNF concentrations (0.005%, 0.05%, and 0.5% by weight).
as §2
Noise-induced cochlear synaptopathy: Rats received a single acoustic trauma (105 dB SPL, 8-16 kHz, 1 h) under anesthesia. 24 hours later (Day 1) animals received a single bilateral IT injection of the treatment regimens. Auditory function (ABR and ABR wave 1 amplitude) was monitored at day 1 and then every 7 days for 28 days, as illustrated in FIG. 16. At termination (Day 28), cochleae were collected and assessed for evidence of cochlear synaptopathy (IHC synaptic puncta counts).
as §3

B1: brain-derived neurotrophic factor (protein, UniProt P23560 129-247, looked up)
Neurotrophic factor BDNF: HSDPARRGELSVCDSISEWVTAADKKTAVDMSGGTVTVLEKVPVSKGQLKQYFYETKCNPMGYTKEGCRGIDKRHWNSQCRTTQSYVRALTMDSKKRIGWRFIRIDTSCVCTLTIKRGR
modifications: Neurotrophic factor BDNF in 16% poloxamer 407 gel
notes: Human recombinant BDNF
B1: the “hearing function (wave I amplitude)” value in the experiment with noise exposed adult rats is listed as “improved”. For the same molecule, the ABR threshold shift result in experiment [1] (0.05 mg/ml BDNF in P407, intratympanic injection 24 hours after noise exposure, ABR at days 1, 7, 14, and 28, vs P407 vehicle alone, FIG. 12A) was “more rapid recovery of initial threshold shifts and overall reduced levels of hearing loss”; in experiment [2] (intratympanic injection 24 hours after noise exposure, FIG. 17) it was “more rapid recovery of initial threshold shifts and overall reduced levels of hearing loss”. Also, in experiment [1] (BDNF in P407 vs vehicle treatment following noise exposure, across many frequencies, FIG. 12C), the “ABR wave I amplitudes” value is “Significant improvements”. The “wave I amplitudes” value in experiment [2] (FIG. 18) is “significant improvements”.

The values are drawn from US20230122991A1, “GROWTH FACTOR FORMULATION FOR CONDITION ASSOCIATED WITH OTIC EVENT” (OTONOMY, INC., priority 2020, published 2023).
